Assay [1] concerns the target TbTrm140 N-terminal deletion mutant (TbTrm140 ΔS2-G17) (T. brucei). Nature of the assay: SEC. A general note: In gel filtration, larger molecules generally elute earlier.
Assay [2] deals with TbTrm140 (3-methylcytosine methyltransferase of Trypanosoma brucei), wild type (T. brucei). Nature of the assay: SEC.

With “TbTrm140 N-terminal deletion mutant (TbTrm140 ΔS2-G17) (enzyme)”, the stoichiometry N in assay [1] stood at 2.
In assay [2], “TbTrm140 (3-methylcytosine methyltransferase of Trypanosoma brucei), wild type (enzyme)” returned a stoichiometry N of 2.

As usually defined, the stoichiometry N is a count of units in the complex or per binding partner.

The record behind these values is PMC5733570.
